One molecule from patent CN113735970A (INST MILITARY MEDICINE ACADEMY MILITARY SCIENCES PLA, dated 2021) can be followed below.

Experiment [1] has as its target SARS-CoV-2 WT S-ECD蛋白 (SARS-CoV-2, UniProt P0DTC2 14-1213).
The target in experiment [2] is SARS-CoV-2 WT RBD蛋白 (SARS-CoV-2, UniProt P0DTC2 319-541).

B1: 抗SARS-CoV-2全人源单克隆抗体ZWC6 (antibody, human IgG1, kappa, V domains shown)
VH: EVQLVESGGGVVQPGTSLRLSCAASGFSFSHYVMYWVRQAPGKGLDWVAIISFDGSSQYYADSVKGRFTISRDNSKDTLYLQMHSLRPEDTAVYYCAIHGGTYYYDKNILAWGQGTLVTVSS
VL: AIRMTQSPPTLSLSPGERATLSCRASQSVTNYLVWYQQKPGQAPRLLIYDTFNRATGIPARFSGSGSGTDFTLTISSLEPEDFAVYYCQQRSNWPPTFGQGTKVDIKR
In general, Kd refers to the equilibrium constant for the complex coming apart. Read a low Kd as higher affinity. As a reminder, the koff is the first-order rate constant of dissociation. High values mean a short-lived complex, low ones a long-lived complex. In general, kon refers to the rate constant with which the complex forms. A higher kon goes with fast association. B1: in experiment [1], the Kd worked out at 1.49 nM, the koff came to 0.000255 s⁻¹ and the kon was determined as 171000 M⁻¹ s⁻¹. In experiment [2], binding was put at a Kd of 0.683 nM, the koff came to 0.000365 s⁻¹ and the kon was found to be 535000 M⁻¹ s⁻¹.
